According to US6991916B2, “Compounds for the treatment of sexual dysfunction” (Pfizer Inc., priority 2000, dated 2006):
Blank lines part the entries; values can stand above or below the molecule they belong to. Non-standard residues stand in square brackets, D forms with d. QSY‑7 = quencher dye attached to Cys via maleimide; Rhodamine green = fluorophore at the N-terminus; βAla = NCCC(=O)O

What was measured:
mouse SEP = biological target: T1, mouse SEP (Mus musculus, UniProt Q9JLI3); settings: cited from earlier work
T1 sequence (Q9JLI3 1-765): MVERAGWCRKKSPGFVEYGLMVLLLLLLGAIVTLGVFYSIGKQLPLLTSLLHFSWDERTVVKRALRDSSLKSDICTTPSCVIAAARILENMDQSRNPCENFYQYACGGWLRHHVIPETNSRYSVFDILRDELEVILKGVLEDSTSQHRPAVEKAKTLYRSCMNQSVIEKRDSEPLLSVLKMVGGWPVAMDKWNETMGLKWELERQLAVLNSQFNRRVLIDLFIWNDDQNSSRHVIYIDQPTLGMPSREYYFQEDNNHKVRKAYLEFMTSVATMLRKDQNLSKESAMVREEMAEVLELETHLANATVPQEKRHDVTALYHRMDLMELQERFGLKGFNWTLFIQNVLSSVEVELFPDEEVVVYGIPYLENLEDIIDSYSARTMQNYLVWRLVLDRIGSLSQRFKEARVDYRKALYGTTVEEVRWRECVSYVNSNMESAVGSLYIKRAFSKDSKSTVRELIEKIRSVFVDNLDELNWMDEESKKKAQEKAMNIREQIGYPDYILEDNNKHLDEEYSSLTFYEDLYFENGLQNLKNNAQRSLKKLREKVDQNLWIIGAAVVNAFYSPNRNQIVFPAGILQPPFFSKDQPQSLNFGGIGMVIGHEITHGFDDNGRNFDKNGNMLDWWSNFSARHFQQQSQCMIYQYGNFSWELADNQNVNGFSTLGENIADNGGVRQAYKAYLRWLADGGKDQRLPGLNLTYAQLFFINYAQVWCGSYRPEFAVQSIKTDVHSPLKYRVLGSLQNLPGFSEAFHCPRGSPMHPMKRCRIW

human SEP = biological target: T2, human SEP (Homo sapiens, UniProt Q495T6); test: Sensitivity of human SEP to inhibitors; assay type: biochemical
T2 construct: with the full length cDNA cloned into the pCMV6-XL4 vector; made in house; host or cells: CHO cells, transient transfection; dialysed culture medium
T2 sequence (Q495T6 75-779 limits assumed): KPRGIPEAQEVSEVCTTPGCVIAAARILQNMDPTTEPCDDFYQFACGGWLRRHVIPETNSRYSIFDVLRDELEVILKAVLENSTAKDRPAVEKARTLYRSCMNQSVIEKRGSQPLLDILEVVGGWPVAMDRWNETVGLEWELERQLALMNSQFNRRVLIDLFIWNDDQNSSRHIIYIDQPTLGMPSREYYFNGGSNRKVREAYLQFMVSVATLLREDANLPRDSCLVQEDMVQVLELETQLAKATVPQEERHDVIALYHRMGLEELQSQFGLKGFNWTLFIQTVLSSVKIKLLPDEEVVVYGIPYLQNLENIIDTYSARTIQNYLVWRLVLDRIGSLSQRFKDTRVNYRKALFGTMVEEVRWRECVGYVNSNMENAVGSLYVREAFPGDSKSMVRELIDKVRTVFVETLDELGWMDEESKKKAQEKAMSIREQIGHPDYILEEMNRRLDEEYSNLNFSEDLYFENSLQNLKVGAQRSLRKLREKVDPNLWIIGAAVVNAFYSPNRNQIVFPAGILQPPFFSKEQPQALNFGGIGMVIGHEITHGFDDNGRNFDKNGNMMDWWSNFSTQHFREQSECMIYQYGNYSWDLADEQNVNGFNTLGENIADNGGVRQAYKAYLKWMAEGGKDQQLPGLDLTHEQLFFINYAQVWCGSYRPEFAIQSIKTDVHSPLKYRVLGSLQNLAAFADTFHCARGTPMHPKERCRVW
Protocol: The enzymatic (proteolytic) activity of human SEP protein can be measured in an assay involving, for example, mixing a sample of the human SEP enzyme with a substrate peptide in a buffer solution (for example 50 mM HEPES; pH 7.4), incubating the mixture for a period of time (such as 1-3 hours) enough for human SEP to act to cleave a measurable portion of the peptide substrate to a product at a temperature suitable for SEP activity (typically 30-37° C.).
The effect of candidate human SEP inhibitor compounds or control test compounds such as phosphoramidon and thiorphan that may alter the activity of human SEP can be measured in this type of assay by including them in the initial mixture at a range of suitable test concentrations, typically 0.1 nM to 50 µM.
To determine the IC50 of SEP inhibitors (SEPi; for example, phosphoramidon), multiple SEP assays are performed as described above with a range of test concentrations of inhibitor included in the 50 μl of DMSO solution (made by appropriate dilution of a 10 mM 100% DMSO stock of inhibitor with 4% DMSO/50 mM HEPES pH7.4.). Using a suitable standard graph fitting computer program, a sigmoidal dose response curve is fitted to a plot of log inhibitor concentration versus MaxV (or % inhibition or % activity). The IC50 is calculated as the inhibitor concentration causing 50% maximal inhibition. […]

NEP enzyme = biological target: T3, NEP enzyme (Homo sapiens, UniProt P08473); test: NEP FRET assay (384 well, substrate CP4); assay type: biochemical; settings: steady state kinetics of NEP with the peptide substrate
T3 construct: made in house; host or cells: Pichia pastoris
T3 sequence (P08473 whole entry): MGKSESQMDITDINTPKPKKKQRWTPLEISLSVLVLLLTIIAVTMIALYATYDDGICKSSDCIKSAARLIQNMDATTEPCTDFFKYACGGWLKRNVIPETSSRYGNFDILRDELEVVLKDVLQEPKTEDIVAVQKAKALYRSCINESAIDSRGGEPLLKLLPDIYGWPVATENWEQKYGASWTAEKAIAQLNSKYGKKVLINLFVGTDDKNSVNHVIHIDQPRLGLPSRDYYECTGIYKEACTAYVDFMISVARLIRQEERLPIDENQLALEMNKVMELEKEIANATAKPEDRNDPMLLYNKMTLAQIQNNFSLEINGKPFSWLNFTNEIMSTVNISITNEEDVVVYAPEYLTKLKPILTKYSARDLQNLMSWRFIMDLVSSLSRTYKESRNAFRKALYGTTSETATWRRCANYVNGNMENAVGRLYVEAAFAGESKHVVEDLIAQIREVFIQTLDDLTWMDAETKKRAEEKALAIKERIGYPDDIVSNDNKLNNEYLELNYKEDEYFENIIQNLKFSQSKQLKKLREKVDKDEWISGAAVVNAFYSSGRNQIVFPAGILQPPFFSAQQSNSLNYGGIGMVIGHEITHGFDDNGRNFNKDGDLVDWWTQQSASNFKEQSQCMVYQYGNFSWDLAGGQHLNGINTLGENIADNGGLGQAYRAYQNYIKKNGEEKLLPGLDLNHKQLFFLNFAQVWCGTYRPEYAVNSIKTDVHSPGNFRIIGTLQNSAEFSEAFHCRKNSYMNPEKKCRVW

[1] = biological target: T4, Rhodamine green-Gly-Gly-dPhe-Leu-Arg-Arg-Val-Cys(QSY-7)-betaAla-NH2
T4 chain: GGFLRRVCA

sensitivity of enzyme to inhibitor (human SEP): sensitive
Molecule: CC(C)C[C@H](NP(=O)(O)O[C@@H]1O[C@@H](C)[C@H](O)[C@@H](O)[C@H]1O)C(=O)N[C@@H](Cc1c[nH]c2ccccc12)C(=O)O [phosphoramidon]
sensitivity of enzyme to inhibitor (mouse SEP): sensitive

Molecule: O=C(O)CNC(=O)C(CS)Cc1ccccc1 (stereo not drawn) [thiorphan]
sensitivity of enzyme to inhibitor (mouse SEP): sensitive
sensitivity of enzyme to inhibitor (human SEP): sensitive

Molecule: Rhodamine green-Gly-Gly-dPhe-Leu-Arg-Arg-Val-Cys(QSY™-7)-βAla-NH2 ({Rhodamine green}-GG[dF]LRRVC(QSY‑7)[βAla]-NH2) [CP4]
Kcat (NEP enzyme): 0.083 s⁻¹
Km (NEP enzyme; recombinant human enzyme, 50 mM Hepes pH 8, 25° C.): 8 µM

B1: Recombinant human NEP (neutral endopeptidase) enzyme (protein)
chain: YDDGICKSSDCIKSAARLIQNMDATTEPCTDFFKYACGGWLKRNVIPETSSRYGNFDILRDELEVVLKDVLQEPKTEDIVAVQKAKALYRSCINESAIDSRGGEPLLKLLPDIYGWPVATENWEQKYGASWTAEKAIAQLNSKYGKKVLINLFVGTDDKNSVNHVIHIDQPRLGLPSRDYYECTGIYKEACTAYVDFMISVARLIRQEERLPIDENQLALEMNKVMELEKEIANATAKPEDRNDPMLLYNKMTLAQIQNNFSLEINGKPFSWLNFTNEIMSTVNISITNEEDVVVYAPEYLTKLKPILTKYSARDLQNLMSWRFIMDLVSSLSRTYKESRNAFRKALYGTTSETATWRRCANYVNGNMENAVGRLYVEAAFAGESKHVVEDLIAQIREVFIQTLDDLTWMDAETKKRAEEKALAIKERIGYPDDIVSNDNKLNNEYLELNYKEDEYFENIIQNLKFSQSKQLKKLREKVDKDEWISGAAVVNAFYSSGRNQIVFPAGILQPPFFSAQQSNSLNYGGIGMVIGHEITHGFDDNGRNFNKDGDLVDWWTQQSASNFKEQSQCMVYQYGNFSWDLAGGQHLNGINTLGENIADNGGLGQAYRAYQNYIKKNGEEKLLPGLDLNHKQLFFLNFAQVWCGTYRPEYAVNSIKTDVHSPGNFRIIGTLQNSAEFSEAFHCRKNSYMNPEKKCRVW
Kcat [1]: 0.083 s⁻¹
Kcat/Km [1]: 10,500 M^-1 S^-1
Km [1]: 8 µM
